The values below are quoted from earlier work in paper PMC12326988, “Synthetic host defense peptide inhibits SARS-CoV-2 replication in vitro” (Antimicrobial Agents and Chemotherapy, 2025).

This series concerns binding of the SARS-CoV-2 RBD to its human ACE2 receptor.

B1: HD5 (peptide, UniProt Q01523 20-94, looked up)
Defensin alpha 5: ESLQERADEATTQKQSGEDNQDLAISFAGNGLSALRTSGSQARATCYCRTGRCATRESLSGVCEISGRLYRLCCR
modifications: Defensin-5
B1: the “affinity, interference with binding of SARS-CoV-2 RBD to human ACE2” value is reported as 76.2 nM.
